Measured values taken from the supplement of paper PMC10724198.

Key:
[1] = system: Saccharomyces cerevisiae; test: protein stability index of tFT-peptide fusion in deletion strain of DOA10 (PSI (0-1 scale)); higher = more stable (slower turnover)
Procedure: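 MPS profiling in S. cerevisiae of two library types built from selected 12-aa C-degron peptides (IN1, IN2, LN1, LN3, VN2, R1-R5, W1-W3, Atg1 and Rpa12 C-termini): saturation mutagenesis libraries and C-terminal +1 capping libraries (13 aa). Each peptide is fused to the C-terminus of a sfGFP-mCherry timer, after a GGGS linker. Cells are FACS-sorted into 8 mCherry/sfGFP bins and sequenced. PSI runs from 0 (unstable) to 1 (stable), measured once in wild type and in the das1Δ or doa10Δ background.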

[2] = system: Saccharomyces cerevisiae; test: protein stability index of tFT-peptide fusion in wild type (PSI (0-1 scale)); higher = more stable (slower turnover); details: genetic background: wild type
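Throughout, for protein stability index of tFT-peptide fusion in deletion strain of DOA10: PSI per variant is the weighted mean of its sequencing read distribution over the sorted stability bins, counting only variants with over 10 reads summed across bins.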
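Throughout, for protein stability index of tFT-peptide fusion in wild type: PSI derived as read-weighted mean over the 8 sorting bins, only variants exceeding 10 total reads kept, mCherry placed adjacent to the peptide and sfGFP distal.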

| Sequence | protein stability index [1] | protein stability index [2] |
| --- | --- | --- |
| AITLPMCPLLLS | 0.443 | 0.405 |
| AITLPMCPLLLT | 0.491 | 0.449 |
| AITLPMCPLLPR | 0.673 | 0.667 |
| AITLPMHPLLLR | 0.643 | 0.25 |
| AITLRMCPLLLR | 0.643 | 0.389 |
| AITQPMCPLLLR | 0.701 | 0.508 |
| ATTLPMCPLLLR | 0.673 | 0.383 |
| CGVSLPILLFFR | 0.622 | 0.0581 |
| CLVMLPILLFFR | 0.426 | 0.0682 |
| CLVQLPILLFFR | 0.597 | 0.0481 |
| CLVSKPILLFFR | 0.627 | 0.17 |
| CLVSLCILLFFR | 0.334 | 0.23 |
| CLVSLLILLFFR | 0.408 | 0.319 |
| CLVSLNILLFFR | 0.323 | 0.17 |
| CLVSLPIELFFR | 0.656 | 0.596 |
| CLVSLPIKLFFR | 0.652 | 0.123 |
| CLVSLPILCFFR | 0.558 | 0.0771 |
| CLVSLPILLFFC | 0.249 | 0.0908 |
| CLVSLPILLFFK | 0.577 | 0.0574 |
| CLVSLPILLFFW | 0.435 | 0.252 |
| CLVSLPILLFNR | 0.588 | 0.394 |
| CLVSLPILLFVR | 0.249 | 0.0446 |
| CLVSLPILLIFR | 0.537 | 0.0669 |
| CLVSLPMLLFFR | 0.626 | 0.0605 |
| CLVSLPWLLFFR | 0.65 | 0.144 |
| CLVSNPILLFFR | 0.661 | 0.368 |

| Sequence | protein stability index [1] | protein stability index [2] |
| --- | --- | --- |
| CLVSQPILLFFR | 0.628 | 0.227 |
| CLVVLPILLFFR | 0.451 | 0.0796 |
| GLQMCSVGCWFR | 0.656 | 0.195 |
| GLTMCSVGCWFR | 0.674 | 0.219 |
| GLVMCSVGCWFR | 0.45 | 0.19 |
| GLYGCSVGCWFR | 0.683 | 0.504 |
| GLYHCSVGCWFR | 0.674 | 0.409 |
| GLYMASVGCWFR | 0.684 | 0.322 |
| GLYMCMVGCWFR | 0.462 | 0.25 |
| GLYMCSDGCWFR | 0.718 | 0.65 |
| GLYMCSGGCWFR | 0.687 | 0.47 |
| GLYMCSSGCWFR | 0.679 | 0.435 |
| GLYMCSVGCDFR | 0.663 | 0.641 |
| GLYMCSVGCPFR | 0.677 | 0.642 |
| GLYMCSVGCWFC | 0.287 | 0.261 |
| GLYMCSVGCWFH | 0.497 | 0.401 |
| GLYMCSVGCWFN | 0.343 | 0.29 |
| GLYMCSVGCWFRD | 0.649 | 0.431 |
| GLYMCSVGCWFRR | 0.646 | 0.347 |
| GLYMCSVGCWFW | 0.453 | 0.333 |
| GLYMCSVGCWHR | 0.722 | 0.668 |
| GLYMCSVGNWFR | 0.683 | 0.611 |
| GLYMCSVGRWFR | 0.668 | 0.643 |
| GLYMESVGCWFR | 0.703 | 0.415 |
| ILYMCSVGCWFR | 0.486 | 0.289 |
| IVTRLDAIYFRI | 0.612 | 0.24 |

| Sequence | protein stability index [1] | protein stability index [2] |
| --- | --- | --- |
| RATRLDAIYFRI | 0.681 | 0.493 |
| RHLRVLLPLYFR | 0.678 | 0.277 |
| RITLPMCPLLLR | 0.651 | 0.296 |
| RMTRLDAIYFRI | 0.655 | 0.429 |
| RNTRLDAIYFRI | 0.664 | 0.529 |
| RSFRVLLPLYFR | 0.612 | 0.162 |
| RSIRVLLPLYFR | 0.643 | 0.225 |
| RSLRVELPLYFR | 0.685 | 0.17 |
| RSLRVLIPLYFR | 0.639 | 0.23 |
| RSLRVLLPLCFR | 0.687 | 0.405 |
| RSLRVLLPLFFR | 0.681 | 0.38 |
| RSLRVLLPLMFR | 0.654 | 0.288 |
| RSLRVLLPLYER | 0.658 | 0.645 |
| RSLRVLLPLYFA | 0.413 | 0.286 |
| RSLRVLLPLYFH | 0.583 | 0.365 |
| RSLRVLLPLYFRD | 0.647 | 0.346 |
| RSLRVLLPLYFRK | 0.593 | 0.293 |
| RSLRVLLPLYFRL | 0.496 | 0.194 |
| RSLRVLLPLYFY | 0.435 | 0.263 |
| RSLRVLLPLYNR | 0.666 | 0.623 |
| RSLRVLLPPYFR | 0.689 | 0.658 |
| RSLRVLLPQYFR | 0.689 | 0.642 |
| RSLRVLLPYYFR | 0.678 | 0.545 |
| RSLRVNLPLYFR | 0.672 | 0.18 |
| RSLRVPLPLYFR | 0.687 | 0.113 |
| RSYRVLLPLYFR | 0.637 | 0.217 |

| Sequence | protein stability index [1] | protein stability index [2] |
| --- | --- | --- |
| RVDRLDAIYFRI | 0.639 | 0.559 |
| RVHRLDAIYFRI | 0.659 | 0.438 |
| RVNRLDAIYFRI | 0.659 | 0.48 |
| RVRRLDAIYFRI | 0.641 | 0.385 |
| RVTCLDAIYFRI | 0.655 | 0.477 |
| RVTRCDAIYFRI | 0.677 | 0.467 |
| RVTRLDACYFRI | 0.707 | 0.532 |
| RVTRLDAILFRI | 0.705 | 0.453 |
| RVTRLDAIYFKI | 0.595 | 0.352 |
| RVTRLDAIYFRA | 0.697 | 0.608 |
| RVTRLDAIYFRIA | 0.136 | 0.0756 |
| RVTRLDAIYFRII | 0.127 | 0.0611 |
| RVTRLDAKYFRI | 0.709 | 0.673 |
| RVTRLDAMYFRI | 0.698 | 0.549 |
| RVTRLDARYFRI | 0.718 | 0.667 |
| RVTRLEAIYFRI | 0.62 | 0.268 |
| RVTRLHAIYFRI | 0.372 | 0.172 |
| RVTRLIAIYFRI | 0.348 | 0.168 |
| RVTRLKAIYFRI | 0.32 | 0.155 |
| RVTRLPAIYFRI | 0.636 | 0.217 |
| RVTRLTAIYFRI | 0.351 | 0.172 |
| RVTRLYAIYFRI | 0.294 | 0.134 |
| TSLRVLLPLYFR | 0.654 | 0.294 |
| WLVSLPILLFFR | 0.518 | 0.105 |
